Among the data in paper PMC11429891 are Kd values, retold here.

The experiment concerns the target human recombinant SNAP25 (Synaptosomal Associated Protein 25) (human), P60880. The experiment can be described thus: SPR. (In general: Surface plasmon resonance follows binding to a sensor surface in real time, without labels.)

Chain of human recombinant SNAP25 (Synaptosomal Associated Protein 25) (human), P60880 (P60880 whole entry): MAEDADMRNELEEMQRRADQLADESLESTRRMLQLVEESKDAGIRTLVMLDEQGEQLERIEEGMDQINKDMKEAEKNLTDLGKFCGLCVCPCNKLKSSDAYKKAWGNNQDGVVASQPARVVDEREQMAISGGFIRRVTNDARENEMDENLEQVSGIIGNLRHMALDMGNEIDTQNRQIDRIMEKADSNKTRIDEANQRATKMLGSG

B1: Bovine Type VI Collagen (complex)
chain 1: not shown
chain 2: QQQEVISPGPSDRNSCPEKADCPVHVYFVLDTSESITMQSPTDSLLYHMQQFVLQFISQLQDELYLDQVALSWRYGGLHFSDLVEVFSPPGSDRASFTKSLQSISSFRRGTFTDCMLANMTQEVRRHVGKGVVNFAVVITDGHVTGSPCGGIKLQAERAREEGIRLFAVPPNLKLNEQGLRDIANTPHELYRNNYATMRPDSTEIDQDTINRIIKVMKHEAYGECYKVSCLEIPGPPGPKGYRGQKGAKGNMGEPGEPGQKGRQGDPGIEGPIGFPGPKGVPGFKGEKGEFGADGRKGAPGLAGKNGTDGQKGKLGRIGPPGCKGDTGDRGPDGYVGEAGSPGERGDQGSKGDPGRPGRRGPPGENGAKGSKGYQGNNGAPGSPGLKGAKGGPGPRGPKGEPGRRGDPGTKGGPGSDGPKGEKGDPGPEGPRGLAGEVGNKGAKANRGLPGPRGPQGTVGEPGKQGSRGDPGDAGPRGDSGQPGPKGDPGRPGFSYPGPRGAPGDKGEPGPPGPEGGRGDFGSKGEPGRKGQKGEPADPGPPGEPGPRGQRGAPGPEGEPGPPGDPGLTECDVMTYVRETCGCCDCEKRCGALDVVFVIDSSESIGYTNFTLEKNFVINVVNRLGAIAKDPKSETGTRVGVVQYSHEGTFEAIQLDDERIDSLSSFKEAVKNLEWIAGGTWTPSALKFAYNKLIKESRRQKTRVFAVVITDGRHDPRDDDLNLRALCNHEVTVTAIGIGDMFHEKHESENLYSIACDKPQQVRNMTLFSDLVAEKFIDDMEDVLCPDPQIVCPDLPCQTELYVAQCTQRPVDIVFLLDGSERLGEQNFHKVRRFVEEVSRRLTLARKDDDPLNARVALLQFGGPREQQVAFPLTSNLTVIQEALASARYLNSFSHVGTGIVQAINQVVQGARAGARRHAELSFVFLTDGVTGNDSLDEAVHSMRKQNVVPTVVAVGSDVDTDVLSKISLGDPAAVFREKDYDSLAQPGFFDRFIRWIC
chain 3: not shown
The Kd is a measure of binding affinity in units of concentration. In the case of B1, the Kd worked out at 15 nM.
